Measured values as given in US20160251444A1.
One block for each molecule: values may come before it.

Assays:
[1] = target: CD20 on human cells (Daudi cells, B cells in PBMCs) (human) (UniProt P11836); assay: cell-based or functional assay
[2] = target: Soluble single-chain human neonatal Fc receptor (scFcRn) (human) (UniProt P55899); assay: SPR (Biacore X), scFcRn immobilized on CM5 chip, pH 6.0, two-state model; Run 3
[3] = target: Soluble single-chain human neonatal Fc receptor (scFcRn) (human) (UniProt P55899); assay: SPR (Biacore X), scFcRn immobilized on CM5 chip, pH 6.0, two-state model; Run 2
[4] = target: Soluble single-chain human neonatal Fc receptor (scFcRn) (human) (UniProt P55899); assay: SPR (Biacore X), scFcRn immobilized on CM5 chip, pH 6.0, two-state model; Run 1
[5] = target: Soluble single-chain human neonatal Fc receptor (scFcRn) (human) (UniProt P55899); assay: SPR (Biacore X), scFcRn immobilized on CM5 chip, pH 6.0, two-state model; mean of 3 runs
[6] = target: CD22 on human cells (B cells in PBMCs, Daudi, D1-1) (human) (UniProt P20273); assay: cell-based or functional assay

Sequence of CD20 on human cells (Daudi cells, B cells in PBMCs) (human) (P11836 whole entry): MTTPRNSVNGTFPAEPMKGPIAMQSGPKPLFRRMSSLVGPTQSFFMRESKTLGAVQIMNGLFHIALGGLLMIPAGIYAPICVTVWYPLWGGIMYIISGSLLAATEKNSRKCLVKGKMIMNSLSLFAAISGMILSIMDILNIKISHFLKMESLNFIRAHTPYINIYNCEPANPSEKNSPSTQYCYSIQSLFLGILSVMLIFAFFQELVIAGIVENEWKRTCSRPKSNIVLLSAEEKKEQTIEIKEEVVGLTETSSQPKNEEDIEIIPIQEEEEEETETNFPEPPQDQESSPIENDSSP

Molecule: 20*-2b (Ck-IgG-IFNα: veltuzumab with four IFNα2b fused at the light chains) (from UniProt P01563 24-188)
in vitro cytotoxicity in Daudi cells (MTS assay), EC50 [1]: 0.0002 nM

Molecule: 20-2b (Fc-IgG-IFNα: veltuzumab with four IFNα2b fused at the heavy chains) (from UniProt P01563 24-188)
in vitro cytotoxicity in Daudi cells (MTS assay), EC50 [1]: 0.0002 nM

Kd [2]: 15.8 nM | Kd [3]: 17.9 nM | Kd [4]: 15 nM | Kd [5]: 16.3 nM
Molecule: Epratuzumab (humanized anti-CD22 IgG1) (antibody)

surface CD22 on B cells of PBMCs after treatment, % of isotype control MFI (flow cytometry) [6]: 45 % control
B1: F(ab')2 fragment of epratuzumab (protein, INN chains, looked up)
VH: QVQLVQSGAEVKKPGSSVKVSCKASGYTFTSYWLHWVRQAPGQGLEWIGYINPRNDYTEYNQNFKDKATITADESTNTAYMELSSLRSEDTAFYFCARRDITTFYWGQGTTVTVSS
VL: DIQLTQSPSSLSASVGDRVTMSCKSSQSVLYSANHKNYLAWYQQKPGKAPKLLIYWASTRESGVPSRFSGSGSGTDFTFTISSLQPEDIATYYCHQYLSSWTFGGGTKLEIK
modifications: F(ab')2
